Measured values as given in patent US20140137294A1, “GLUCOSINOLATE TRANSPORTER PROTEIN AND USES THEREOF” (UNIVERSITY OF COPENHAGEN, priority 2010, published 2014).

B1: BrGTR2-A2: Brassica rapa GTR2-A2 protein, SEQ ID NO: 66 (protein, listed as Brassica rapa)
chain: MERKPLEVESTDHQKPSSAVYDGSATAVDSVEEEVQETKLVYRGWKVMPFIIGNETFEKLGIIGTLSNLLVYLTAVFNMKSITAATIINAFSGTINFGTFVAAFLCDTYFGRYKTLTVAVIACFLGSLVILLTAAVPQLHPAPCGIALTCTGPSGGQIAFLLMGLAFLVVGAGGIRPCNLAFGADQFNPKSESGKRGIDSFFNWYFFTFTFAQILSLTLVVYIQSNVSWTIGLTIPVVLMFLACVIFFAGDKLYVKIKASGSPLASIAQVITVAIKKRGLKAVKQPWVNLYNYYPLNYANSKLKYTDQFRFLDKAAILAPEDKLEADGKPTDPWKLCTMQQVEEVKCIVRVLPIWFASSIYYLTITQQMTYPVFQALQSDRRLGSGGFVIPAATYVVFLMTGMTVFIIIYDRVLVPTLRRITGIDTGITLLQRIGTGIFFAFLSLVVSGFVEERRRTFALTKPTLGMAPRKGEISSMSAMWLIPQLTLAGVAEAFGAIGQMEFYYKQFPENMRSFAGSIFYVGGGVSSYLGSFLIATVHRTTQNSAGGNWLAEDLNKGRLDLFYFMIAGILAVNFAYFLVMSRWYRYKGSDDEVTAYETNGDVIKQQDKNKV
B2: BrGTR2 (S359F): BrGTR2-A2 protein with Ser to Phe at position 359 of SEQ ID NO: 66 (protein, listed as Brassica rapa)
chain: MERKPLEVESTDHQKPSSAVYDGSATAVDSVEEEVQETKLVYRGWKVMPFIIGNETFEKLGIIGTLSNLLVYLTAVFNMKSITAATIINAFSGTINFGTFVAAFLCDTYFGRYKTLTVAVIACFLGSLVILLTAAVPQLHPAPCGIALTCTGPSGGQIAFLLMGLAFLVVGAGGIRPCNLAFGADQFNPKSESGKRGIDSFFNWYFFTFTFAQILSLTLVVYIQSNVSWTIGLTIPVVLMFLACVIFFAGDKLYVKIKASGSPLASIAQVITVAIKKRGLKAVKQPWVNLYNYYPLNYANSKLKYTDQFRFLDKAAILAPEDKLEADGKPTDPWKLCTMQQVEEVKCIVRVLPIWFASFIYYLTITQQMTYPVFQALQSDRRLGSGGFVIPAATYVVFLMTGMTVFIIIYDRVLVPTLRRITGIDTGITLLQRIGTGIFFAFLSLVVSGFVEERRRTFALTKPTLGMAPRKGEISSMSAMWLIPQLTLAGVAEAFGAIGQMEFYYKQFPENMRSFAGSIFYVGGGVSSYLGSFLIATVHRTTQNSAGGNWLAEDLNKGRLDLFYFMIAGILAVNFAYFLVMSRWYRYKGSDDEVTAYETNGDVIKQQDKNKV
B3: BrGTR2 (G126R): BrGTR2-A2 protein with Gly to Arg at position 126 of SEQ ID NO: 66 (protein, listed as Brassica rapa)
chain: MERKPLEVESTDHQKPSSAVYDGSATAVDSVEEEVQETKLVYRGWKVMPFIIGNETFEKLGIIGTLSNLLVYLTAVFNMKSITAATIINAFSGTINFGTFVAAFLCDTYFGRYKTLTVAVIACFLRSLVILLTAAVPQLHPAPCGIALTCTGPSGGQIAFLLMGLAFLVVGAGGIRPCNLAFGADQFNPKSESGKRGIDSFFNWYFFTFTFAQILSLTLVVYIQSNVSWTIGLTIPVVLMFLACVIFFAGDKLYVKIKASGSPLASIAQVITVAIKKRGLKAVKQPWVNLYNYYPLNYANSKLKYTDQFRFLDKAAILAPEDKLEADGKPTDPWKLCTMQQVEEVKCIVRVLPIWFASSIYYLTITQQMTYPVFQALQSDRRLGSGGFVIPAATYVVFLMTGMTVFIIIYDRVLVPTLRRITGIDTGITLLQRIGTGIFFAFLSLVVSGFVEERRRTFALTKPTLGMAPRKGEISSMSAMWLIPQLTLAGVAEAFGAIGQMEFYYKQFPENMRSFAGSIFYVGGGVSSYLGSFLIATVHRTTQNSAGGNWLAEDLNKGRLDLFYFMIAGILAVNFAYFLVMSRWYRYKGSDDEVTAYETNGDVIKQQDKNKV
B4: BrGTR2 (G145R): BrGTR2-A2 protein with Gly to Arg at position 145 of SEQ ID NO: 66 (protein, listed as Brassica rapa)
chain: MERKPLEVESTDHQKPSSAVYDGSATAVDSVEEEVQETKLVYRGWKVMPFIIGNETFEKLGIIGTLSNLLVYLTAVFNMKSITAATIINAFSGTINFGTFVAAFLCDTYFGRYKTLTVAVIACFLGSLVILLTAAVPQLHPAPCRIALTCTGPSGGQIAFLLMGLAFLVVGAGGIRPCNLAFGADQFNPKSESGKRGIDSFFNWYFFTFTFAQILSLTLVVYIQSNVSWTIGLTIPVVLMFLACVIFFAGDKLYVKIKASGSPLASIAQVITVAIKKRGLKAVKQPWVNLYNYYPLNYANSKLKYTDQFRFLDKAAILAPEDKLEADGKPTDPWKLCTMQQVEEVKCIVRVLPIWFASSIYYLTITQQMTYPVFQALQSDRRLGSGGFVIPAATYVVFLMTGMTVFIIIYDRVLVPTLRRITGIDTGITLLQRIGTGIFFAFLSLVVSGFVEERRRTFALTKPTLGMAPRKGEISSMSAMWLIPQLTLAGVAEAFGAIGQMEFYYKQFPENMRSFAGSIFYVGGGVSSYLGSFLIATVHRTTQNSAGGNWLAEDLNKGRLDLFYFMIAGILAVNFAYFLVMSRWYRYKGSDDEVTAYETNGDVIKQQDKNKV
B5: BrGTR2 (E192K): BrGTR2-A2 protein with Glu to Lys at position 192 of SEQ ID NO: 66 (protein, listed as Brassica rapa)
chain: MERKPLEVESTDHQKPSSAVYDGSATAVDSVEEEVQETKLVYRGWKVMPFIIGNETFEKLGIIGTLSNLLVYLTAVFNMKSITAATIINAFSGTINFGTFVAAFLCDTYFGRYKTLTVAVIACFLGSLVILLTAAVPQLHPAPCGIALTCTGPSGGQIAFLLMGLAFLVVGAGGIRPCNLAFGADQFNPKSKSGKRGIDSFFNWYFFTFTFAQILSLTLVVYIQSNVSWTIGLTIPVVLMFLACVIFFAGDKLYVKIKASGSPLASIAQVITVAIKKRGLKAVKQPWVNLYNYYPLNYANSKLKYTDQFRFLDKAAILAPEDKLEADGKPTDPWKLCTMQQVEEVKCIVRVLPIWFASSIYYLTITQQMTYPVFQALQSDRRLGSGGFVIPAATYVVFLMTGMTVFIIIYDRVLVPTLRRITGIDTGITLLQRIGTGIFFAFLSLVVSGFVEERRRTFALTKPTLGMAPRKGEISSMSAMWLIPQLTLAGVAEAFGAIGQMEFYYKQFPENMRSFAGSIFYVGGGVSSYLGSFLIATVHRTTQNSAGGNWLAEDLNKGRLDLFYFMIAGILAVNFAYFLVMSRWYRYKGSDDEVTAYETNGDVIKQQDKNKV

System: Xenopus oocytes
Test: 4-MTB uptake in Xenopus oocytes expressing wildtype or mutant BrGTR2-A2 proteins
Type: cell-based
Settings: 0.5 mM 4-MTB for one hour

Molecule	4-MTB imported (pH 5, non-injected oocytes no detectable uptake)	4-MTB uptake activity of mutant BrGTR2-A2 protein versus wildtype
B1	about 2.5 nmol 4-MTB per hour per oocyte	
B2		increased uptake activity
B3		almost no uptake activity
B4		no significant change in uptake of 4-MTB
B5		reduction in glucosinolate uptake
